In patent publication US20150086555A1:

B1: TCN-536 (5095_N01) (antibody, V domains shown)
VH: QVQLQQWGAGLLKPSETLSLTCAVYGGSFSVSGYYWSWIRQPPGRGLEWIGEISHGGSTNYNPSLKSRVTISVDTTKNQFSLRLSSVTAADTAVYYCARGTDPDTEVYCRVGNCAAFDYWGQGSLVTVSS
VL: EIILAQSPGTLSLSPGERATLSCRASQFVSTRSLAWYQQRPGQAPRLLIYGASSRATGIPDRFSGSGSGTDFTLTISRLEPEDFAVYYCQHYGYSPRYAFGQGSKVEIK
B2: TCN-528 (5087_P17) (antibody, V domains shown)
VH: QVQLVQSGSEVKKPGASVKVSCKASGYTFTNYDINWIRQAPGQGLEWMGWINPNSGTTGSAQRFQGRVTITVDTSITTVYMELSSLRSDDTAIYYCARGRELLRLQHFLTDSQSERRDCFDPWGQGTLVTVSS
VL: DIQMTQSPSSLSASVGDRVTITCRANQDIGIYLNWYQQNPGKVPKLLLHGASSLQGGVPSRFSASGSGTDFTLTIHSLQPEDLATYYCQQSRRLPYTFGQGTRVELK

Target: recombinant homotrimeric HA A/California/4/09 H1N1 (Influenza A virus A/California/04/2009(H1N1))
Assay: protein microarray, purified IgG, trimeric HA
Conditions: remark: other sources report otherwise

Point of comparison: B2, Trimeric HA Binding: RLU 6810 RLU. Against it:
- B1 — lower, 298 RLU

Target: recombinant homotrimeric HA A/Japan/305/57 H2N2 (Influenza A virus A/Japan/305/1957(H2N2))
Assay: protein microarray, purified IgG, trimeric HA
Conditions: remark: other sources report otherwise

Point of comparison: B2, Trimeric HA Binding: RLU 30100 RLU. Against it:
- B1 — lower, 771 RLU

Target: recombinant homotrimeric HA A/Netherlands/219/03 H7N7 (Influenza A virus A/Netherlands/219/03(H7N7))
Assay: protein microarray, purified IgG, trimeric HA
Conditions: remark: other sources report otherwise

Point of comparison: B2, Trimeric HA Binding: RLU 16700 RLU. Against it:
- B1 — lower, 186 RLU

Target: recombinant homotrimeric HA A/Hong Kong/2108/03 H9N2 (Influenza A virus A/HK/2108/2003(H9N2))
Assay: protein microarray, purified IgG, trimeric HA
Conditions: remark: other sources report otherwise

B2 was tested, and the Trimeric HA Binding: RLU was 23600 RLU.

Target: recombinant homotrimeric HA A/Vietnam/1203/04 H5N1 (Influenza A virus A/VietNam/1203/2004(H5N1))
Assay: protein microarray, purified IgG, trimeric HA
Conditions: remark: other sources report otherwise

Point of comparison: B1, Trimeric HA Binding: RLU 749 RLU. Against it:
- B2 — higher, 24600 RLU

Target: recombinant homotrimeric HA A/northern shoveler/California/HKWF115/07 H6N4 (Influenza A virus A/northern shoveler/California/HKWF115/2007(H6N1))
Assay: protein microarray, purified IgG, trimeric HA
Conditions: remark: other sources report otherwise

Point of comparison: B2, Trimeric HA Binding: RLU 18000 RLU. Against it:
- B1 — lower, 114 RLU

Target: recombinant homotrimeric HA A/Egypt/3300-NAMRU3/08 H5N1 (Influenza A virus A/Egypt/3300-NAMRU3/2008(H5N1))
Assay: protein microarray, purified IgG, trimeric HA
Conditions: remark: other sources report otherwise

Point of comparison: B1, Trimeric HA Binding: RLU 4710 RLU. Against it:
- B2 — higher, 25600 RLU

Target: recombinant homotrimeric HA A/Hong Kong/156/97 H5N1 (Influenza A virus A/Hong Kong/156/97 (H5N1))
Assay: protein microarray, purified IgG, trimeric HA
Conditions: remark: other sources report otherwise

Point of comparison: B2, Trimeric HA Binding: RLU 25700 RLU. Against it:
- B1 — lower, 732 RLU

Target: recombinant homotrimeric HA A/Wisconsin/67/05 H3N2 (Influenza A virus A/Wisconsin/67/2005(H3N2))
Assay: protein microarray, purified IgG, trimeric HA
Conditions: remark: other sources report otherwise

Point of comparison: B1, Trimeric HA Binding: RLU 24700 RLU. Against it:
- B2 — lower, 1060 RLU

Target: recombinant homotrimeric HA A/Indonesia/5/05 H5N1 (Influenza A virus A/Indonesia/5/2005(H5N1))
Assay: protein microarray, purified IgG, trimeric HA
Conditions: remark: other sources report otherwise

With B2 the Trimeric HA Binding: RLU was 27000 RLU.

Target: recombinant homotrimeric HA A/Solomon Islands/3/06 H1N1 (Influenza A virus A/Solomon Islands/3/2006(H1N1))
Assay: protein microarray, purified IgG, trimeric HA
Conditions: remark: other sources report otherwise

For B2, the Trimeric HA Binding: RLU was 25400 RLU.

Target: recombinant homotrimeric HA A/South Carolina/1/18 H1N1 (Influenza A virus A/South Carolina/1/18 (H1N1))
Assay: protein microarray, purified IgG, trimeric HA
Conditions: remark: other sources report otherwise

Point of comparison: B2, Trimeric HA Binding: RLU 16900 RLU. Against it:
- B1 — lower, 160 RLU

Target: recombinant homotrimeric HA A/Anhui/1/05 H5N1 (Influenza A virus A/Anhui/1/2005(H5N1))
Assay: protein microarray, purified IgG, trimeric HA
Conditions: remark: other sources report otherwise

Point of comparison: B2, Trimeric HA Binding: RLU 28800 RLU. Against it:
- B1 — lower, 8860 RLU

Target: recombinant homotrimeric HA A/chicken/Vietnam/NCVD-016/08 H5N1 (Influenza A virus A/chicken/Vietnam/NCVD-016/2008(H5N1))
Assay: protein microarray, purified IgG, trimeric HA
Conditions: remark: other sources report otherwise

Point of comparison: B2, Trimeric HA Binding: RLU 22700 RLU. Against it:
- B1 — lower, 419 RLU

Target: recombinant soluble homotrimeric HA of A/Japan/305/57 (H2N2) (Influenza A virus A/Japan/305/1957(H2N2))
Assay: HA microarray, BCC supernatant
Conditions: remark: other sources report otherwise

Point of comparison: B2, Trimeric HA Binding: RLU 46400 RLU. Against it:
- B1 — lower, 121 RLU

Target: recombinant soluble homotrimeric HA of A/chicken/Vietnam/NCVD-016/08 (H5N1) (Influenza A virus A/chicken/Vietnam/NCVD-016/2008(H5N1))
Assay: HA microarray, BCC supernatant
Conditions: remark: other sources report otherwise

Point of comparison: B2, Trimeric HA Binding: RLU 38200 RLU. Against it:
- B1 — lower, 287 RLU

Target: recombinant soluble homotrimeric HA of A/northern shoveler/California/HKWF115/07 (H6) (Influenza A virus A/northern shoveler/California/HKWF115/2007(H6N1))
Assay: HA microarray, BCC supernatant
Conditions: remark: other sources report otherwise

Point of comparison: B1, Trimeric HA Binding: RLU 2210 RLU. Against it:
- B2 — higher, 46800 RLU

Target: recombinant soluble homotrimeric HA of A/Netherlands/219/03 (H7N7) (Influenza A virus A/Netherlands/219/03(H7N7))
Assay: HA microarray, BCC supernatant
Conditions: remark: other sources report otherwise

Point of comparison: B2, Trimeric HA Binding: RLU 49300 RLU. Against it:
- B1 — lower, 976 RLU

Target: recombinant soluble homotrimeric HA of A/Hong Kong/2108/03 (H9N2) (Influenza A virus A/HK/2108/2003(H9N2))
Assay: HA microarray, BCC supernatant
Conditions: remark: other sources report otherwise

Point of comparison: B1, Trimeric HA Binding: RLU 1570 RLU. Against it:
- B2 — higher, 42000 RLU

Target: recombinant soluble homotrimeric HA of A/Solomon Islands/3/06 (H1N1) (Influenza A virus A/Solomon Islands/3/2006(H1N1))
Assay: HA microarray, BCC supernatant
Conditions: remark: other sources report otherwise

Work on B2 yielded a Trimeric HA Binding: RLU of 44800 RLU.

Target: recombinant soluble homotrimeric HA of A/duck/Yangzhou/02/05 (H8N4) (Influenza A virus A/duck/Yangzhou/02/2005(H8N4))
Assay: HA microarray, BCC supernatant
Conditions: remark: other sources report otherwise

Point of comparison: B1, Trimeric HA Binding: RLU 436 RLU. Against it:
- B2 — higher, 38400 RLU

Target: recombinant soluble homotrimeric HA of A/Wisconsin/67/05 (H3N2) (Influenza A virus A/Wisconsin/67/2005(H3N2))
Assay: HA microarray, BCC supernatant
Conditions: remark: other sources report otherwise

Point of comparison: B2, Trimeric HA Binding: RLU 48800 RLU. Against it:
- B1 — lower, 35000 RLU

Target: recombinant soluble homotrimeric HA of A/Vietnam/1203/04 (H5N1) (Influenza A virus A/VietNam/1203/2004(H5N1))
Assay: HA microarray, BCC supernatant
Conditions: remark: other sources report otherwise

Point of comparison: B1, Trimeric HA Binding: RLU 146 RLU. Against it:
- B2 — higher, 45600 RLU

Target: recombinant soluble homotrimeric HA of A/Indonesia/5/05 (H5N1) (Influenza A virus A/Indonesia/5/2005(H5N1))
Assay: HA microarray, BCC supernatant
Conditions: remark: other sources report otherwise

B2 showed a Trimeric HA Binding: RLU of 42800 RLU.

Target: recombinant soluble homotrimeric HA of A/swine/Ontario/01911-2/99 (H4N6) (Influenza A virus A/Swine/Ontario/01911-2/99 (H4N6))
Assay: HA microarray, BCC supernatant
Conditions: remark: other sources report otherwise

Point of comparison: B2, Trimeric HA Binding: RLU 47500 RLU. Against it:
- B1 — lower, 79 RLU

Target: recombinant soluble homotrimeric HA of A/Anhui/1/05 (H5N1) (Influenza A virus A/Anhui/1/2005(H5N1))
Assay: HA microarray, BCC supernatant
Conditions: remark: other sources report otherwise

Point of comparison: B1, Trimeric HA Binding: RLU 543 RLU. Against it:
- B2 — higher, 49800 RLU

Target: recombinant soluble homotrimeric HA of A/California/4/09 (H1N1) (Influenza A virus A/California/04/2009(H1N1))
Assay: HA microarray, BCC supernatant
Conditions: remark: other sources report otherwise

Point of comparison: B2, Trimeric HA Binding: RLU 48800 RLU. Against it:
- B1 — lower, 151 RLU
